Patent US20240200055A1, “TRANSFORMED CELL LINES EXPRESSING IL24-STAT3 AND METHODS FOR SCREENING AGENTS FOR TREATING BY TARGETING IL24-STAT3 SIGNALING PATHWAY USING THE SAME” (UIF (University Industry Foundation), Yonsei University, priority 2022, published 2024)

Experiments:
HeLa-EF1a-Luc2 cells = assay: Luciferase reporter activity in HeLa-EF1a-Luc2 cells (background control); type: cell-based, human; details: 1 μM Stattic, 150 ng/mL IL24, 8 hours, vs DMSO
Method: (§1) Hela cells were cultured to 20% confluency on the day of infection. After removing the culture medium, lentivirus expressing Luc2 (LVX-EIP-Luc2) was mixed with a culture medium and treated to the cells. After adding 2 μg of Polybrene per 1 mL of the virus, the plate was carefully shaken for mixing. After culturing for 15 hours under the condition of 37° C. and 5% CO2, the culture medium was replaced with a fresh one. 48 hours later, the transduced cells were cultured further and recombinant HeLa-EF1a-Luc2 cells were selected by culturing for 2 weeks in a medium containing 2 μg/mL puromycin as an antibiotic.
(§2) HeLa-IL24HTS cells and HeLa-EF1a-Luc2 cells were cultured on a 96-well plate at a concentration of 2.0×10^4 cells/well, respectively. After treating the cells with a vehicle (DMSO) (no Stattic) or 1 μM Stattic (CAS No: 19983-44-9), which is a STAT3 inhibitor, while treating with 150 ng/mL IL24 and culturing for 8 hours, luciferase activity was measured using a luciferase assay system (Promega).

IL24-STAT3 signaling [1] = assay: IL24-induced STAT3 luciferase reporter activity in HeLa-IL24HTS cells, inhibitor test; type: cell-based, human; details: 1 μM Stattic, 150 ng/mL IL24, 8 hours, vs DMSO
Method: as §1, with “The selected and established HeLa-4.47” for “Hela”, “hIL22RA1, hIL20RB or hSTAT3” for “Luc2 (LVX-EIP-Luc2)”, “HeLa-IL24HTS” for “HeLa-EF1a-Luc2”, “puromycin, 5 μg/mL blasticidin S and 1,000 μg/mL G418” for “puromycin”, “antibiotics. Through this experiment, HeLa-4.47-hIL22RA1-hIL20RB-hSTAT3 cells that stably express all of hIL22RA1, hIL20RB and hSTAT3 were established and named HeLa-IL24HTS.” for “an antibiotic.”
as §2

IL24-STAT3 signaling [2] = assay: Luciferase activity of pGL4.47 HeLa clones co-transfected with hIL22RA1, hIL20RB and hSTAT3, with or without IL24; type: cell-based, human; details: 150 ng/mL IL24, 24 hours, clone 12 (HeLa-4.47)
Method: 2 mg of pGL4.47 (Promega, E4041), which is a STAT3 reporter plasmid, was linearized using the Pst1 restriction enzyme. The linearized plasmid was transfected into Hela cells using polyethyleneimine (Polysciences). 48 hours later, the cells were transferred to a 100-mm culture dish and only the transfected cells were selected by treating with 500 μg/mL hygromycin and culturing for 2 weeks. The selected transfected cells were cultured on a 96-well plate. The cells were dispensed at 0.5 cell per well. 33 clones were obtained by culturing further for 3 weeks. Each clone was mixed with pCMV-SPORT6-hIL22RA1 (Korea Human Gene Bank), pCMV3-hIL20RB (SinoBiological) and pCMV3-hSTAT3 (SinoBiological) at 1:1:1 for co-transfection. The transfected cells were treated or untreated with 150 ng/mL IL24. After culturing for 24 hours, luciferase activity was measured by luciferase assay. The clone with the strongest activity was established and named HeLa-4.47.
HeLa cells were transfected with pGL4.47 and selecting using hygromycin to obtain 33 clones. After co-transfecting each clone by mixing with pCMV-SPORT6-hIL22RA1, pCMV3-hIL20RB and pCMV3-hSTAT3 at 1:1:1, luciferase activity was measured using a luciferase assay system (Promega) for treatment with 150 ng/mL IL24 (IL24(+)) or absence of treatment (IL24(−)).

IL24-STAT3 signaling [3] = details: earlier literature reporter assay; cited from earlier work
IL24-STAT3 signaling [4] = assay: Reporter activity of HeLa-IL24HTS cells treated with IL24 at different concentrations; type: cell-based, human; details: 15 ng/mL or higher IL24, 24 hours
Method: The HeLa-4.47 cells established in Test Example 2 were treated with lentivirus expressing hIL22RA1, hIL20RB or hSTAT3 and selected with 2 μg/mL puromycin, 5 μg/mL blasticidin S and 1,000 μg/mL G418 as antibiotics to obtain HeLa-4.47-hIL22RA1-hIL20RB-hSTAT3 cells (HeLa-IL24HTS) which stably express all of hIL22RA1, hIL20RB and hSTAT3. The specific process of preparing the HeLa-IL24HTS cell line was the same as described above.
After treating the prepared HeLa-IL24HTS cells with IL24 at different concentrations (0.15 ng/mL, 1.5 ng/mL, 15 ng/mL and 150 ng/mL) and culturing for 24 hours, luciferase activity was measured using a luciferase assay system (Promega). […] It can be seen that the HeLa-IL24HTS cells show strong reporter induction of 60 fold or higher in the presence of 15 ng/mL or higher IL24.

Molecule | change in reporter activity (HeLa-EF1a-Luc2 cells) | reporter activity inhibited (IL24-STAT3 signaling [1]) | IL24(+)/IL24(−) ratio of luciferase activity (IL24-STAT3 signaling [2]) | increase of reporter signal by IL24 (IL24-STAT3 signaling [3]) | reporter induction (IL24-STAT3 signaling [4]) [fold]
O=[N+]([O-])c1ccc2c(c1)S(=O)(=O)C=C2 [Stattic] | no significant change | about 80% |  |  | 
IL24: cytokine of the IL-10 family that signals through IL-20R1/IL-20R2 and IL-22R1/IL-20R2 and activates STAT3 (protein, UniProt Q13007 52-206, looked up) Interleukin-24: QEFHFGPCQVKGVVPQKLWEAFWAVKDTMQAQDNITSARLLQQEVLQNVSDAESCYLVHTLLEFYLKTVFKNYHNRTVEVRTLKSFSTLANNFVLIVSQLQPSQENEMFSIRDSAHRRFLLFRRAFKQLDVEAALTKALGEVDILLTWMQKFYKL |  |  | 150-200 | about 3 times | ≥ 60
